Experimental data taken from US20260216242A1 (ALMAC DISCOVERY, published 2026).
Changes are numbered by the printed parent chain. Numbers in names are those of the source. Each block holds one binder with its values, some of them ahead of it.

Columns and labels:
human ALPL on CHO cells = target: T1, human ALPL on CHO cells (human, UniProt P05186 18-501); test: flow cytometry, CHO cells stably expressing human ALPL; PDC detected with FITC anti-human Ab
T1 construct: whole, on cells; also called CHO-ALPL
T1 sequence (looked up): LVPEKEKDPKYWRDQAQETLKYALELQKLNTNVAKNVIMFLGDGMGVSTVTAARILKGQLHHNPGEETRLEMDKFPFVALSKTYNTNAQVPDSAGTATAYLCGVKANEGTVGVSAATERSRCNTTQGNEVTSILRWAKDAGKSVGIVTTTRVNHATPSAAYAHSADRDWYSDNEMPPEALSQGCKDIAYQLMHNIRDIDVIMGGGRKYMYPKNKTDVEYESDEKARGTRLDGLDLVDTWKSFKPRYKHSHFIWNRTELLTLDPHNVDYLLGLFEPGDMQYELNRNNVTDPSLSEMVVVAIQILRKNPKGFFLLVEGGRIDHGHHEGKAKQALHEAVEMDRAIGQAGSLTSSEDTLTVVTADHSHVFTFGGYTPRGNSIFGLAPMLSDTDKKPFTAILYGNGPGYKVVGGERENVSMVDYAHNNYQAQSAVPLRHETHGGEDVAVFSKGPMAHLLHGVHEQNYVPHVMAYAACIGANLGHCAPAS
Experimental: (§1) Biparatopic VHH-hFc drug conjugates were assessed for human ALPP, ALPPL2, ALPI and ALPL cell-surface binding by flow cytometry. Binders were screened on CHO cells stably expressing human ALPP, ALPPL2, ALPI or ALPL.
(§2) Cell surface binding of test agents to hALPP isoforms was characterized in four CHO-ALPP isoform transfectant cell lines (CHO-ALPP, CHO-ALPPL2, CHO-ALPI and CHO-ALPL) and the resulting KDapp values determined. Adherent cells were detached from tissue culture flasks by incubating with 0.1% EDTA/PBS solution at 37° C. for […] or until cells detached easily. Cells were re-suspended in ice-cold PBS/2% FCS in 15 ml tubes and centrifuged at 1700 rpm for 5 mins at 4° C. Supernatant was removed and the cell pellet re-suspended in PBS/2% FCS. […] Cells were incubated with 100 μl of test agents at a range of concentrations, plus controls for 1 hr on ice. The sample plate was centrifuged at 1700 rpm for 5 mins at 4° C. The supernatant was removed, and a wash performed by re-suspending the cell pellets in 0.25 mL of ice-cold PBS/2% FCS using a multichannel pipette. Samples were again centrifuged at 1700 rpm for 5 min at 4° C. Supernatant was removed and two further washes performed as described. After the final wash and centrifugation step, excess liquid was removed by blotting the plate on tissue paper. Binding of VHH-hFc agents was determined by adding 100 μl of Fitc-anti-human Ab (ThermoFisher) and incubating for 30 mins on ice in the dark. Wash steps were performed as described previously. All cell pellets were finally re-suspended in 0.28 ml of ice-cold PBS/2% FCS and left on ice in the dark prior to analysis on a Merck-Millipore Guava EasyCyte HT or Thermo Fisher Attune N×T flow cytometer.

human ALPI on CHO cells = target: T2, human ALPI on CHO cells (human, UniProt P09923 20-503); test: flow cytometry, CHO cells stably expressing human ALPI; PDC detected with FITC anti-human Ab
T2 construct: whole, on cells; also called CHO-ALPI
T2 sequence (looked up): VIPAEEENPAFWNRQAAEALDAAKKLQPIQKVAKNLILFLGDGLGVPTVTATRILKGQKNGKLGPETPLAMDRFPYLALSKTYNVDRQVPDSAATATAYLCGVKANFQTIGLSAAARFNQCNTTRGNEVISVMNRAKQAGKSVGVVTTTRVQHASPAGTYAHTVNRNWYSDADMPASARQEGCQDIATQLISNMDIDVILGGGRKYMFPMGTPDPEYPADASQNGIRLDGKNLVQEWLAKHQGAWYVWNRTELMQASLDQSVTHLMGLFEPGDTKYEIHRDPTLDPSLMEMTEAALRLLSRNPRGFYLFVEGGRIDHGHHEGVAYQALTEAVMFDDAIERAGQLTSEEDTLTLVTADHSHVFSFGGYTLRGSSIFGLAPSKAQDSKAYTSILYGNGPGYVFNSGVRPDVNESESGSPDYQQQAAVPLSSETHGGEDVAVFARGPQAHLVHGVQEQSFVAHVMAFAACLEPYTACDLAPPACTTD
Experimental: as §1, §2

[1] = target: T3, human ALPL (tissue non-specific alkaline phosphatase) expressed on the surface of CHO cells (human, UniProt P05186 18-501); test: flow cytometry, CHO-ALPL cells
T3 construct: whole, on cells; The cell-surface form has none; also called CHO-ALPL; hALPL
T3 sequence (looked up): T1 sequence (looked up)

[2] = target: T4, human ALPPL2 (alkaline phosphatase, germ cell type) expressed on the surface of CHO cells (human, UniProt P10696 20-503); test: cell-based or functional assay
[3] = target: T3, human ALPL (tissue non-specific …); test: cell-based or functional assay
[4] = target: T5, human ALPI (intestinal alkaline phosphatase) expressed on the surface of CHO cells (human, UniProt P09923 20-503); test: cell-based or functional assay
T5 sequence (looked up): T2 sequence (looked up)

[5] = target: T4, human ALPPL2 (alkaline phosphatase, …); test: flow cytometry on CHO-ALPPL2 cells, apparent KD (KDapp)
Experimental: as §1, §2

[6] = target: T5, human ALPI (intestinal alkaline …); test: flow cytometry, CHO-ALPI cells
[7] = target: T6, human ALPP (alkaline phosphatase, placental type) expressed on the surface of CHO cells (human, UniProt P05187 23-506); test: flow cytometry on CHO-ALPP cells, apparent KD (KDapp)
T6 construct: also called CHO-ALPP; hALPP
Experimental: as §1, §2

T4 sequence (P10696 20-503): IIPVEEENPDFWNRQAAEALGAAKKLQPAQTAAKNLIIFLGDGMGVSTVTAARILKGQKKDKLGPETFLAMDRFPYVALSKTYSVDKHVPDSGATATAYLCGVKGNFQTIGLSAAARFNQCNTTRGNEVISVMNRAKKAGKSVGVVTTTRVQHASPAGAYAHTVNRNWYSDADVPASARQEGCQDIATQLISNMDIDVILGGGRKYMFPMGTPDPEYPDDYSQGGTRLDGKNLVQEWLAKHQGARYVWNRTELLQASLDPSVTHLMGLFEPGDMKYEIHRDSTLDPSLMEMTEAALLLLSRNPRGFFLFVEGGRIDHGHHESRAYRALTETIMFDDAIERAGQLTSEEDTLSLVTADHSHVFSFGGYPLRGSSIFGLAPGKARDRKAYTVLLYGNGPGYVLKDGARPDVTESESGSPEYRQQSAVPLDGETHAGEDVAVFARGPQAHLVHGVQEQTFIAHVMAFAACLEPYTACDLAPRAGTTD
T6 sequence (P05187 23-506 limits assumed): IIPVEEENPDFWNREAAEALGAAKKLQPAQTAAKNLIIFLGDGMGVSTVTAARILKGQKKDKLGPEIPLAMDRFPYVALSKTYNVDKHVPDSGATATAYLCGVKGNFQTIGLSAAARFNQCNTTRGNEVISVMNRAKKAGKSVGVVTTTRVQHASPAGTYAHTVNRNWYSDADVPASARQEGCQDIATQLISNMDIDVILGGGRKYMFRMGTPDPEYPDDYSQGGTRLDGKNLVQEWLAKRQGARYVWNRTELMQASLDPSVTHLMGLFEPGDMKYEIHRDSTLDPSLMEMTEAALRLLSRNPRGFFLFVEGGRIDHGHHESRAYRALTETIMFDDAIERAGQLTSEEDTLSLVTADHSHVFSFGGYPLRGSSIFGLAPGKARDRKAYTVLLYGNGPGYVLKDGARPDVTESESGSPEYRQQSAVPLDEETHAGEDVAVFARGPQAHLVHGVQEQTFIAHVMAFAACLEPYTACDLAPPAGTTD

B1: D10-E06-hFc-vcPAB-MMAE [G4S]1 (Fc fusion, DAR 4)
chain 1: QVQLVESGGGLVQPGGSLRLSCAASGSIFSVNTMGWYRQAPGKQRDLVAVATSGGTIHYADSVKGRFTISRDNAKNTVYLQMNSLKPEDTAVYYCNLVVPYGMIAGDHDYWGQGTKVTVSSGGGGSEPKSSDKTHTCPPCPAPELLGGPCVFLFPPKPKDTLMISRTPEVTCVVVDVSHEDPEVKFNWYVDGVEVHNAKTKPREEQYNSTYRVVSVLTVLHQDWLNGKEYKCKVSNKALPAPIEKTISKAKGQPREPQVYTLPPSRDELTKNQVSLYCLVKGFYPSDIAVEWESNGQPENNYKTTPPVLDSDGSFFLYSKLTVDKSRWQQGNVFSCSVMHEALHNHYTQKSLCLSPGK
chain 2: QVHLVESGGGLVQAGGSLRLSCAASRRSFSEYAMGWFRQAPGKEREFVAAIGWSGVIEYADSVKGRFTISRDNAKDTVYLQMNSLKPEDTAVYYCAAGLGIRVVSQTPAYWGQGTQVTVSSGGGGSEPKSSDKTHTCPPCPAPELLGGPCVFLFPPKPKDTLMISRTPEVTCVVVDVSHEDPEVKFNWYVDGVEVHNAKTKPREEQYNSTYRVVSVLTVLHQDWLNGKEYKCKVSNKALPAPIEKTISKAKGQPREPQVYTLPPSRDELTKNQVSLTCLVKGFYPSDIAVEWESNGQPENNYKTTPPVLDSDGSFFLTSKLTVDKSRWQQGNVFSCSVMHEALHNHYTQKSLCLSPGK
modifications: MC-vc-PAB-MMAE on Cys 239 and Cys 442 (EU numbering)
notes: Biparatopic drug conjugate, DAR 4
binding result (human ALPL on CHO cells): no binding (tested: 350 nM)
binding result (human ALPI on CHO cells): no binding (tested: 350 nM)

B2: D10-E10-hFc-vcPAB-MMAE [G4S]1 (Fc fusion, DAR 4)
chain 1: B1 chain 1
chain 2: QVQLVESGGGLVQAGGSLRLSCAVSGRALSDYNIGWFRQAPGKEREFVARKTWDGSSTRYDDSVKGRFTVSIEDAKNTAYLQMSSLKTEDTAVYYCAAGRYSRARGWEYDYWGQGTQVTVSSGGGGSEPKSSDKTHTCPPCPAPELLGGPCVFLFPPKPKDTLMISRTPEVTCVVVDVSHEDPEVKFNWYVDGVEVHNAKTKPREEQYNSTYRVVSVLTVLHQDWLNGKEYKCKVSNKALPAPIEKTISKAKGQPREPQVYTLPPSRDELTKNQVSLTCLVKGFYPSDIAVEWESNGQPENNYKTTPPVLDSDGSFFLTSKLTVDKSRWQQGNVFSCSVMHEALHNHYTQKSLCLSPGK
modifications: MC-vc-PAB-MMAE on Cys 239 and Cys 442 (EU numbering)
notes: as for B1
binding result (human ALPL on CHO cells): no binding (tested: 350 nM)
binding result (human ALPI on CHO cells): no binding (tested: 350 nM)

B4: D10 E10-hFc (S239/442C T366Y/Y407T), [G4S]3 linker, MC-vc-PAB-MMAE conjugate, #636 (Fc fusion, DAR 4)
chain 1: QVQLVESGGGLVQPGGSLRLSCAASGSIFSVNTMGWYRQAPGKQRDLVAVATSGGTIHYADSVKGRFTISRDNAKNTVYLQMNSLKPEDTAVYYCNLVVPYGMIAGDHDYWGQGTKVTVSSGGGGSGGGGSGGGGSEPKSSDKTHTCPPCPAPELLGGPCVFLFPPKPKDTLMISRTPEVTCVVVDVSHEDPEVKFNWYVDGVEVHNAKTKPREEQYNSTYRVVSVLTVLHQDWLNGKEYKCKVSNKALPAPIEKTISKAKGQPREPQVYTLPPSRDELTKNQVSLYCLVKGFYPSDIAVEWESNGQPENNYKTTPPVLDSDGSFFLYSKLTVDKSRWQQGNVFSCSVMHEALHNHYTQKSLCLSPGK
chain 2: QVQLVESGGGLVQAGGSLRLSCAVSGRALSDYNIGWFRQAPGKEREFVARKTWDGSSTRYDDSVKGRFTVSIEDAKNTAYLQMSSLKTEDTAVYYCAAGRYSRARGWEYDYWGQGTQVTVSSGGGGSGGGGSGGGGSEPKSSDKTHTCPPCPAPELLGGPCVFLFPPKPKDTLMISRTPEVTCVVVDVSHEDPEVKFNWYVDGVEVHNAKTKPREEQYNSTYRVVSVLTVLHQDWLNGKEYKCKVSNKALPAPIEKTISKAKGQPREPQVYTLPPSRDELTKNQVSLTCLVKGFYPSDIAVEWESNGQPENNYKTTPPVLDSDGSFFLTSKLTVDKSRWQQGNVFSCSVMHEALHNHYTQKSLCLSPGK
modifications: MC-vc-PAB-MMAE on Cys of S239C and S442C (EU numbering)
notes: Biparatopic knob-into-hole VHH-hFc heterodimer, DAR 4; also called D10-E10 hFc-vcPAB-MMAE; D10-E10 hFc-vc-MMAE
binding result [1]: no binding (tested: 350 nM (highest concentration))
IC50 at 96 h, cell-killing of CHO-ALPPL2 cells [2]: 12.5 nM
IC50 at 96 h, cell-killing of CHO-ALPL cells [3]: > 1000 nM
IC50 at 96 h, cell-killing of CHO-ALPI cells [4]: > 1000 nM
Kd [5]: 4.7 nM
binding result [6]: no binding (tested: 350 nM (highest concentration))
Kd [7]: 6.8 nM

B5: D10-E10 hFc-vcPAB-MMAE [G4S]3 (Fc fusion, DAR 4)
chain 1: B4 chain 1
chain 2: B4 chain 2
modifications: MC-vc-PAB-MMAE on Cys 239 and Cys 442 (EU numbering)
notes: as for B1
binding result (human ALPL on CHO cells): no binding (tested: 350 nM)
binding result (human ALPI on CHO cells): no binding (tested: 350 nM)

B7: D10 F05-hFc (S239/442C T366Y/Y407T), [G4S]3 linker, MC-vc-PAB-MMAE conjugate, #637 (Fc fusion, DAR 4)
chain 1: B4 chain 1
chain 2: B4 chain 2 with V24A, L29F, S30G, K51R, E73D, D74N, S84N, A104V
modifications: MC-vc-PAB-MMAE on Cys of S239C and S442C (EU numbering)
notes: Biparatopic knob-into-hole VHH-hFc heterodimer, DAR 4; also called D10-F05 hFc-vcPAB-MMAE; D10-F05 hFc-vc-MMAE
binding result [1]: no binding (tested: 350 nM (highest concentration))
IC50 at 96 h, cell-killing of CHO-ALPPL2 cells [2]: 13 nM
IC50 at 96 h, cell-killing of CHO-ALPL cells [3]: > 1000 nM
IC50 at 96 h, cell-killing of CHO-ALPI cells [4]: > 1000 nM
Kd [5]: 3.5 nM
binding result [6]: no binding (tested: 350 nM (highest concentration))
Kd [7]: 7.4 nM

Second part, the binder after the results:

binding result (human ALPL on CHO cells): no binding (tested: 350 nM)
binding result (human ALPI on CHO cells): no binding (tested: 350 nM)
B3: D10-F05-hFc-vcPAB-MMAE [G4S]1 (Fc fusion, DAR 4)
chain 1: B1 chain 1
chain 2: B2 chain 2 with V24A, L29F, S30G, K51R, E73D, D74N, S84N, A104V
modifications: MC-vc-PAB-MMAE on Cys 239 and Cys 442 (EU numbering)
notes: Biparatopic drug conjugate, DAR 4; also called #679

binding result (human ALPL on CHO cells): no binding (tested: 350 nM)
binding result (human ALPI on CHO cells): no binding (tested: 350 nM)
B6: D10-F05 hFc-vcPAB-MMAE [G4S]3 (Fc fusion, DAR 4)
chain 1: B4 chain 1
chain 2: B4 chain 2 with V24A, L29F, S30G, K51R, E73D, D74N, S84N, A104V
modifications: MC-vc-PAB-MMAE on Cys 239 and Cys 442 (EU numbering)
notes: Biparatopic drug conjugate, DAR 4; also called #637
